Data: patent US20050118170A1

What was measured:
[1] = target: human collagen type I (human) (UniProt P02452); assay: adherence of cells to collagen-coated plates, 30 minutes at 37° C.; not inhibited by anti-β1 integrin blocking antibody
[2] = target: DDR1b (discoidin domain receptor 1, isoform b), full-length human, overexpressed in THP-1 cells (human) (UniProt Q08345); assay: cell-based or functional assay
DDR1b (discoidin domain receptor 1, isoform b), full-length human, overexpressed in THP-1 cells (human), sequence (Q08345 19-913, form in doubt): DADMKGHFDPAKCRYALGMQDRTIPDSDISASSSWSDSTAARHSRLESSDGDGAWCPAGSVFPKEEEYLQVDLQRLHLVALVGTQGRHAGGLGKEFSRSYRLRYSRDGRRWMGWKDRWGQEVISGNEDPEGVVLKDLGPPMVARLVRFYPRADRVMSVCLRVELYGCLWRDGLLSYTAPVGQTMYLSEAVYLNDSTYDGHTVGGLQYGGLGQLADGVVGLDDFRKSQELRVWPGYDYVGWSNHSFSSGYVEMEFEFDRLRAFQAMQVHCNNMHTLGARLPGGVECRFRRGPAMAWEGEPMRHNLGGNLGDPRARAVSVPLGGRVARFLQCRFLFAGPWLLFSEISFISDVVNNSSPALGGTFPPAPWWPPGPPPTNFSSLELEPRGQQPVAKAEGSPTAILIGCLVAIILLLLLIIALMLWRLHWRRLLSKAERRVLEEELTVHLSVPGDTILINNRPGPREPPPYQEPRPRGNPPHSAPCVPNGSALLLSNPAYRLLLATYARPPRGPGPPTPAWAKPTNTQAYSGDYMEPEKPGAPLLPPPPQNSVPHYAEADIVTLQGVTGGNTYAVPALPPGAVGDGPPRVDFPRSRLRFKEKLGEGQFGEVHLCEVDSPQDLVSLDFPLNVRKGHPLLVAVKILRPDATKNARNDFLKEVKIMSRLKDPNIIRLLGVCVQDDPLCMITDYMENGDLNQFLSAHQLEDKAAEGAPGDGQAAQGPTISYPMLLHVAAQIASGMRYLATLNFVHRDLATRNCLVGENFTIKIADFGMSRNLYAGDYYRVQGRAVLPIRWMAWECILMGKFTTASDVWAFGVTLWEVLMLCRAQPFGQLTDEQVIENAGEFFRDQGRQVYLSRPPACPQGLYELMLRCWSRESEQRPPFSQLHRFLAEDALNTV

human collagen type I (human), sequence (P02452 162-1218 limits assumed, chain 1 of 2): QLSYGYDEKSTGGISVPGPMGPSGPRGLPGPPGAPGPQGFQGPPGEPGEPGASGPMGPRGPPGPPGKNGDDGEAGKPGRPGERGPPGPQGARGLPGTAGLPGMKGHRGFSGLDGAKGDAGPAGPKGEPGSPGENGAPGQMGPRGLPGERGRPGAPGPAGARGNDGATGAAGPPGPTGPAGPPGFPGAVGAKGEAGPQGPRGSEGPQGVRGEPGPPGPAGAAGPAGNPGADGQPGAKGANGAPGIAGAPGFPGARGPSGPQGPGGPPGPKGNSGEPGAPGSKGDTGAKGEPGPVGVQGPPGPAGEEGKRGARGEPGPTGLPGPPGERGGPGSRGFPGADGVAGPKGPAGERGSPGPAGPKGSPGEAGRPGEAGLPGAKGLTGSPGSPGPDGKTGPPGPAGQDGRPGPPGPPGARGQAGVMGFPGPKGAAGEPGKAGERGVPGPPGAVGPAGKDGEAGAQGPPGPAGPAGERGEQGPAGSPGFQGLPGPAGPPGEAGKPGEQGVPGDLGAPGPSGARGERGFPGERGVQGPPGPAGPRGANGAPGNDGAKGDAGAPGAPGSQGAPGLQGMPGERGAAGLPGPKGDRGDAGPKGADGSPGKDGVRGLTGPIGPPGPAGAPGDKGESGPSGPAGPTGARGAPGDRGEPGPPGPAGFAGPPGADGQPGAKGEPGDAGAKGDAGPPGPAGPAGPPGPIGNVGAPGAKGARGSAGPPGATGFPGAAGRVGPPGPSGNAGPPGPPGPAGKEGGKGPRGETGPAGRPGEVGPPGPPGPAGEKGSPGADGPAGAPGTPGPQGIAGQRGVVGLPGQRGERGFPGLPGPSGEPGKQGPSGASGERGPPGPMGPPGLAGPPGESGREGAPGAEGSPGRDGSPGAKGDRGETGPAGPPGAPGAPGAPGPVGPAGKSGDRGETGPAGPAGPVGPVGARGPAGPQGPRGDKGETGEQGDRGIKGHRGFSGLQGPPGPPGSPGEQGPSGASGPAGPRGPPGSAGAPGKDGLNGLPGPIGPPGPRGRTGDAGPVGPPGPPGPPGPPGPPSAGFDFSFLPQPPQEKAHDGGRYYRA
human collagen type I (human), sequence (P08123 80-1119 limits assumed, chain 2 of 2, further chain): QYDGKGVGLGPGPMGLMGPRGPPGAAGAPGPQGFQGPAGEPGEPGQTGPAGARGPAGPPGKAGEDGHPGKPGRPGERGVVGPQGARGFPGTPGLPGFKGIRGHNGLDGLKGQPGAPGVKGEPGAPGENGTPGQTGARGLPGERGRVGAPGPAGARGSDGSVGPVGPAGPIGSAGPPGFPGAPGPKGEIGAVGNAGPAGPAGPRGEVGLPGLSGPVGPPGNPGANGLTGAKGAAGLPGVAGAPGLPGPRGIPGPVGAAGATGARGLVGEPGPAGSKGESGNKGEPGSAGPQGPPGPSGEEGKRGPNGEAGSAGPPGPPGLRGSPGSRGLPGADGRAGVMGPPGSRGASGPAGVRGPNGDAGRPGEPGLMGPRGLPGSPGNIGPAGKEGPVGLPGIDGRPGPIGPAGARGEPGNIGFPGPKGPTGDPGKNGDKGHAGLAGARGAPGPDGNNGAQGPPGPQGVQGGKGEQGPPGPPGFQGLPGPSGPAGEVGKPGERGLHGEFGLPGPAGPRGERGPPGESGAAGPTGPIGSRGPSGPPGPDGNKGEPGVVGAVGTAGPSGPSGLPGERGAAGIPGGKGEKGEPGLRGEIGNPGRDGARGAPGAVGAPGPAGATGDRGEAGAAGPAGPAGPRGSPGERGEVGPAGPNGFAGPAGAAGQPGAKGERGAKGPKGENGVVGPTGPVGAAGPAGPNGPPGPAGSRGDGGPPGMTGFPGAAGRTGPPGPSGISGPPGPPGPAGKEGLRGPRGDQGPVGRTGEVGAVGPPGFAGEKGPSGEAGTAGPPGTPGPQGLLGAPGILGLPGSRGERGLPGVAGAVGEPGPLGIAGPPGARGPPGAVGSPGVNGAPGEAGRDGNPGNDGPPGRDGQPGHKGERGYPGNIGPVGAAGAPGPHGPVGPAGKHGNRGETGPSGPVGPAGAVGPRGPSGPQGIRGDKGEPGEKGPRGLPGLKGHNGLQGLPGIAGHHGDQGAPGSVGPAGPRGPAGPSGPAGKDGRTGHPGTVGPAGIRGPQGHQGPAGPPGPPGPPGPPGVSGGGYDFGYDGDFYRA
DDR1b (discoidin domain receptor 1, isoform b), full-length human, overexpressed in THP-1 cells, sequence (Q08345 19-913): as the sequence (Q08345 19-913, form in doubt) above

## DDR1a (discoidin domain receptor 1, isoform a), full-length human, overexpressed in THP-1 cells (from UniProt Q08345 19-913)
[1]
  percent of total cells adherent (% of total cells): 62

## DDR1b (discoidin domain receptor 1, isoform b), full-length human, overexpressed in THP-1 cells (from UniProt Q08345 19-913)
[1]
  percent of total cells adherent (% of total cells): 62

## bovine collagen type I (from UniProt P02453 162-1217; P02465 80-1117)
[2]
  decrease in cell proliferation of PMA-treated THP-1 cells on collagen-coated plates: 50%

## bovine collagen type I (from UniProt P02453 162-1217; P02465 80-1117) (ligand)
[2]
  CD11c-positive cells at 24 hours on collagen-coated plates: 53%
  CD14-positive cells at 24 hours on collagen-coated plates: 35%
  CD40-positive cells at 24 hours on collagen-coated plates: 19%
  HLA-DR-positive cells, 12 hours on collagen-coated plates: 10%
  HLA-DR-positive cells, 24 hour incubation on collagen-coated plates: 25%
  HLA-DR-positive cells, 48 hour incubation on collagen-coated plates: 70%
  MCP-1 release into culture supernatant (ELISA): 7 fold
